Results reported in paper doi:10.1101/2025.05.28.656718.

Molecular target: His-tagged PKM1 (human) (UniProt P14618)
Assay: AlphaScreen or HTRF

Pep-SP1, sequence (Q6SZW1 whole entry, looked up): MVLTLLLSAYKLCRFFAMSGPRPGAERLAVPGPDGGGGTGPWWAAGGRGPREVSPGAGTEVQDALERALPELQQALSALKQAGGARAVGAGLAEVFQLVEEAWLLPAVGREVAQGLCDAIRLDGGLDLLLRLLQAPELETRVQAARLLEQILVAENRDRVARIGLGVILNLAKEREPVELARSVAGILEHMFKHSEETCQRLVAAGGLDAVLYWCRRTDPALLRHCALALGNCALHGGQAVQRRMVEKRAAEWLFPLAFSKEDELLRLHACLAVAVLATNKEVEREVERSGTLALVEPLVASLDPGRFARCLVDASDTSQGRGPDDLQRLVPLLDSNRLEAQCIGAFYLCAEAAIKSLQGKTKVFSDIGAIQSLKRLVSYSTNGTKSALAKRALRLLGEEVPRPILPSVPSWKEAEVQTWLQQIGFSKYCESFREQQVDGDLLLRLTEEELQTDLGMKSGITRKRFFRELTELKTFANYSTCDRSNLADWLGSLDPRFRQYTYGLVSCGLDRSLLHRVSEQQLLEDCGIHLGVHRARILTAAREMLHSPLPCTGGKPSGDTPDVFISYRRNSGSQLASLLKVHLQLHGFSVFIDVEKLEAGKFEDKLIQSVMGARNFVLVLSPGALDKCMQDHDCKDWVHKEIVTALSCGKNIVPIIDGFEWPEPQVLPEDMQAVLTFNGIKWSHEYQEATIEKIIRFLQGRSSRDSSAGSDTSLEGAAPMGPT

IC50: 1070 nM
Substance: Pep-SP1 (from UniProt Q6SZW1 645-655) (peptide)
